± gives the uncertainty stated by the source.
Experiment: protein stability index of a GFP-peptide fusion (yeast GPS) (PSI 1-4); higher = more stable; sorted into four equal gates, so the index is relative within each strain
Procedure, shortened: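 Sequencing reads from sorted gates were used to score each peptide. The library consisted of tiled 17-residue yeast protein peptides fused downstream of GFP on a Cherry-expressing plasmid, pooled and carried in yeast. Mid-log cultures in leucine-free medium were split into four equal gates by GFP/Cherry ratio, and each gate's plasmids were PCR-amplified and Illumina-sequenced. The protein stability index adds up, over all gates, the read frequency multiplied by the gate number.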

Sequence	protein stability index (doa10∆)	protein stability index (pdr5∆)	protein stability index (ubr1∆)	protein stability index (san1∆)
RFEKAVKHVFGKTIVVK [SMC3]	2.76 ± 0.21	3.58 ± 0.2	3.5 ± 0.16	
RFKNSVKWYHFDHNDKK [PRE7]	2.32 ± 0.057	2.76 ± 0.064	2.62 ± 0.043	2.69 ± 0.043
RFKVVKVSGVSLLALWK [RPS23A]	2.55 ± 0.22	1.59 ± 0.14	1.81 ± 0.14	1.71 ± 0.14
RFQKCFPPGVIGIDEGS [RPC40]	2.15 ± 0.11	2.15 ± 0.22	2.43 ± 0.18	
RFVIWTEAAFTKLDQVW [RPL4A]	3.18 ± 0.11	2.39 ± 0.096	2.39 ± 0.13	2.28 ± 0.24
RGFFDILSLATEGCIGL [MCD1]	2.87 ± 0.1	3.03 ± 0.057	2.7 ± 0.063	2.52 ± 0.092
RGGVKRISGLIYEEVRA [HHF1]	3.35 ± 0.13	3.13 ± 0.2		3.15 ± 0.11
RGKKGLKKKVVDPFTRK [RPS1B]	3.73 ± 0.15	3.34 ± 0.082	3.27 ± 0.088	3.35 ± 0.074
RGNIKVMFATNRPNTLD [RPT1]	2.91 ± 0.079	3.05 ± 0.088	2.98 ± 0.085	3.02 ± 0.063
RGRGRGRGRGRGRPPKA [SNF2]	3.22 ± 0.075	3.2 ± 0.066	3.27 ± 0.06	3.37 ± 0.041
RGRPPKARNGLDYVRTP [SNF2]	1.52 ± 0.096	1.67 ± 0.087	3.09 ± 0.074	2.41 ± 0.13
RGVDAGKGNTFEKVGSH [RPN14]	2.71 ± 0.24	2.98 ± 0.17	3.33 ± 0.12	3.67 ± 0.11
RHLVNRGREEAASFKKL [PRE10]	3.07 ± 0.059	3.2 ± 0.1	2.85 ± 0.089	3 ± 0.084
RHSGKVYPITLSTDATS [UBP6]	1.98 ± 0.072	2.76 ± 0.066	2.02 ± 0.045	2.74 ± 0.057
RIHAKNFEAALFAKSSS [GAL11]	2.67 ± 0.086	2.54 ± 0.072	2.56 ± 0.047	2.74 ± 0.099
RIKITANNNMNDELVEL [GRR1]	2.35 ± 0.051	2.41 ± 0.053	2.71 ± 0.041	2.33 ± 0.062
RIMSTRCMMAAQYFYSG [DIS3]	1.67 ± 0.06	1.95 ± 0.058	1.77 ± 0.04	1.58 ± 0.079
RIQLMNDFTTKLINIKK [MED1]	2.89 ± 0.081	2.81 ± 0.099	2.97 ± 0.086	2.84 ± 0.11
RIVGSELIQKYLGDGPR [RPT2]	2.21 ± 0.14	3.14 ± 0.16	3.11 ± 0.13	3.33 ± 0.27
RIYDREPTVRIQAVFCL [YCG1]	2.47 ± 0.11	1.72 ± 0.15	2.39 ± 0.1	1.61 ± 0.21
RKINLFYLYMLVQKFGG [SWI1]	1.59 ± 0.099	1.23 ± 0.048	1.08 ± 0.072	1.16 ± 0.18
RKLAVERAGHLLCDKAQ [PRE5]	3.47 ± 0.15	3.18 ± 0.11	3.37 ± 0.14	3.12 ± 0.072
RKNFKMGPLYQNFAEFM [IRR1]	1.33 ± 0.037	1.54 ± 0.06	1.67 ± 0.038	1.72 ± 0.078
RKQIDETQVLVSTPEKW [BRR2]	2.07 ± 0.052	2.46 ± 0.058	2.77 ± 0.028	2.31 ± 0.055
RKRHQRALKVRNAQAQR [RPS6A]	3.04 ± 0.14	2.96 ± 0.1	2.96 ± 0.13	2.73 ± 0.073
RKWVIFITKHLPLLILE [NUT1]	1.7 ± 0.067	1.25 ± 0.045	1.2 ± 0.03	1.21 ± 0.1

Sequence	protein stability index (doa10∆)	protein stability index (pdr5∆)	protein stability index (ubr1∆)	protein stability index (san1∆)
RLAEVNLKDLNNVKQMV [RPO21]	2.77 ± 0.26		3.08 ± 0.18	2.9 ± 0.25
RLDSYKVIEQPITSETA [RPL25]	1.94 ± 0.055	2.31 ± 0.079	2.5 ± 0.067	2.31 ± 0.079
RLELPVDFQNDLKDILE [BRR2]	2.83 ± 0.14	3.09 ± 0.084	2.81 ± 0.052	2.78 ± 0.061
RLERRINLTKVTQKDIC [CSI1]	2.88 ± 0.079	2.82 ± 0.13	3.29 ± 0.12	3.18 ± 0.065
RLGDLGVIDDSFDVAIS [SMC4]	2.85 ± 0.14	2 ± 0.14	1.98 ± 0.067	1.23 ± 0.25
RLGSKKLVEIIWNDVVY [YJL039C/NUP192]	3.4 ± 0.17	3.43 ± 0.12	3.35 ± 0.08	3.46 ± 0.082
RLKDVEWVKLHRLLQRA [RMP1]	3.16 ± 0.085	3.13 ± 0.093	3.02 ± 0.079	3.24 ± 0.06
RLKEKGSRVLIFSQMSR [ISW2]	1.67 ± 0.056	2.19 ± 0.066	2.06 ± 0.057	1.53 ± 0.11
RLLSALGPRGVSITPGK [SRP21]	2.97 ± 0.078	3.04 ± 0.074	2.93 ± 0.054	3.29 ± 0.078
RLNNVFVIGEQGKPYIS [RPS4A]	2.66 ± 0.11	3.02 ± 0.094	2.12 ± 0.057	3.1 ± 0.11
RLPHQFRPIEIFTDFLP [RRP42]	1.86 ± 0.068	1.96 ± 0.07	2.21 ± 0.066	2.03 ± 0.078
RLPVSEDTNTKPLFDFG [YOR098C/NUP1]	2.76 ± 0.13	2.76 ± 0.12	3.08 ± 0.13	1.93 ± 0.23
RLTFKPWVVYLQILAML [YMR129W/POM152]	1.23 ± 0.07	1.22 ± 0.06	1.05 ± 0.049	1.1 ± 0.11
RLTKQAFDWVLSNIEAQ [RPO21]	3.2 ± 0.12	2.93 ± 0.12	2.8 ± 0.088	3.19 ± 0.091
RLTRLWIKNEQERQRQI [PRP8]	2.42 ± 0.14	2.56 ± 0.26		
RLYVKGKHLSYQRSKRV [RPL33A]	2.1 ± 0.063	1.75 ± 0.046	2.46 ± 0.065	1.67 ± 0.094
RMAKYLNNTHVISSGPL [RPC53]	2.96 ± 0.13	2.91 ± 0.16	2.47 ± 0.069	2.74 ± 0.074
RMERIKDHLLLEEEFVS [RPT2]	2.24 ± 0.12	2.22 ± 0.097	2.23 ± 0.1	2.09 ± 0.13
RMLLNLCKSATTKMWPT [BRR2]	1.47 ± 0.068	1.79 ± 0.1	1.99 ± 0.069	1.7 ± 0.12
RMLSSILDINVSSSKNK [SWP82]	2.71 ± 0.051	2.9 ± 0.051	2.61 ± 0.032	2.49 ± 0.059
RNDSTVNDSVISAPSME [BRN1]	2.71 ± 0.085	2.95 ± 0.083	2.96 ± 0.061	2.78 ± 0.061
RNEDARRNLRYGDRMKL [RPO31]	3.37 ± 0.096	3.38 ± 0.084	3.38 ± 0.065	3.21 ± 0.08
RNEKRMFLEFQSTQTDL [SMC2]	2.53 ± 0.19	2.48 ± 0.19	2.61 ± 0.12	3.24 ± 0.14
RNLNNLKQENAYLLIRR [RPB8]	3.14 ± 0.072	3.16 ± 0.084	3 ± 0.054	3.15 ± 0.071
RNNVMLLIATNLKEYNK [SRB8]	2.44 ± 0.11	2.11 ± 0.099	2.21 ± 0.072	2.74 ± 0.081

Reference: the supplement of paper PMC9732359
